From the RNAGym collection of RNA variant scans (doi:10.1073/pnas.2313332121)

B1: TPR t1 (parent)
chain: GACCAAUCUGCCCUCAGAGCUCGAGAACAUCUUCGGAUGCAGAGGAGGCAGGCUUCGGUGGCGCGAUAGCGCCAACGUCCUCAACCUCCAAUGCAUCCCACCACAUGAUGAUGCCUGAAGAGCCUUGGUUUUUUG

Variants of: B1
Test: polymerase ribozyme fitness, log enrichment relative to wild type (log ratio); higher = more active; in vitro selection for triplet polymerase activity
In short: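 Mutant libraries were PCR-built and transcribed for each subunit of a heterodimeric triplet polymerase ribozyme and selected for one round in triplicate at −7 °C, frozen, before gel excision of extended constructs and streptavidin-bead capture. Input and output libraries were Illumina-sequenced, keeping genotypes with ≥10 input reads and ≥1 read per output. Fitness is a logarithmic ratio of genotype to wild-type enrichment, in base 2, using inverse-variance-weighted replicate averages.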

Variant	polymerase ribozyme fitness (log ratio)
GACCAAUCUGCCCUCAGAGCUCGAGAACAUCUUGGGAUGCAGAGGAGGCAGGCUUCGGUGGCGCGAUAGCGCUAACGUCCUCAACCUCCAAUGCAUCCCACCAGAUGAUGAUGCCCGAAGCUCCUUGGUUUUUUG [C34G C73U C104G U116C A121C G122U]	-6.01
GGCCAAUCUGCCCUCAGAGCUUGAGAACAUCUUCGGAUGCAGAGGAGGCAGGCUUCGGUGACGCGAUAGCGCCAUCGUCCUCAACCUCCAAUGCAUCCCACCACAUGAUGAUGCCUGAAGAGCCUUGGUUUUUUG [A2G C22U G61A A75U]	-4.04
GACCAAUCUGCCCUCAGAGCUCGAGAACAUCUUCGGAUGCAGAGGAGGCAGGCUUCGGUGGCGCGAUAGCGCCAACGUCCUCAACCUCCAAUGCAUCCCACCACAAGAUGAUGCCUCAAGAGCCUUGGUUUUUUG [U106A G117C]	-1.94
GACCAAUCUGCCCUCAGAGCUCGAGAACAUCUUCGGAUGCUGAGGAAGCAGGCUUCGGUGGCGCGAUAGCGCCAACGUCCUCAACCUCCAAUGCAUCCCACCACAUGAUUAUGCCUGAAGAGCCUUGGUUUUUUG [A41U G47A G110U]	-5.48
GACCAAUCUGCCCUCAGAGUUCGAGAACAUCUUCGGAUGCAGCGGAGGCAGGCUUCGGUGGCGCGAUAGCGCCAACGUCCUUAACCUCCAAUGCAUCUCACCACAUGAUGAUGCCUGAAGAGCCUUGGUUUUUUG [C20U A43C C82U C98U]	-4.43
GACCAAUCUGCCCUCAGAGCUCGAGAACAUCUUCGGAUGCAGAGGAGGCAGGCUUCGGUGGCGCGAUAGCGCCAACGUCCUCAACCUCUAAUGCAUCCCACCACAUGAUGAUGCCUGAAGGGCCUUGGUUUUUUG [C89U A121G]	-0.907
GACCAAUCUGCCCUCAGAGCUCGAGAACAUCUUCGGAUGCUGAGGAGGCAGGCUUCGGUGGCGCGAUAGCGCCAACGUCCUCAACCUCCAAUGCAUCCCACCACAUGAUGAUCCAUGAAGAGCAUUGGUUUUUUG [A41U G113C C115A C124A]	-5.25
GACCAAUCUGCCCUCAGAGCUCGAGAACAUCUUCGGAUGCAGAGGAGGCAGGCUUCGGUGGCGCGAUAGCGCCAACGCCCUCAGCCUCCAAUGCAUCCCACCACAUGAUGAUGCCUGAAGAGCCUUGAUUUUUUG [U78C A84G G128A]	-3.53
GACCAAUCUGCCCUCAGAGCUCGAGAACAUCUUCGGUUGCAGAGGAGGCACGCUUCGGUGGCGCGAUAGCGCCAACGUGCUCAACCUCCAAUGCAUCCCACCACAUGAUGAUGCCUGGAGAGCCUUGGUUUUUUG [A37U G51C C79G A118G]	-3.37
GACCAAUCUGCCCUCAGAGCUCGAGAACAUCUUCGGAUGCAGAGGAGGCAGGCUUCGGUGGCGCGAUAGCGCCUACGUCCUCAACCUCCAAUGUAUCCCACCACAUGAUGAUGCCUGAAGAGCCUUGGUUUUUUG [A74U C94U]	-0.301
GACCAAUCUGCCCUCAGUGCCCGAGAACAUCUUCGAAUGCAGAGGAGGCAGGCUUCGGUGGCGCGAUAGCGUCAACGUCCUCAACCUCCAAUGCAUCCCACCACAUGAUGAUGUCUGAAGAGCCUUGGUUUUUUG [A18U U21C G36A C72U C114U]	-4.3
GACCAAUCUGCCCUCAGAGCUCGAGAACAUCUUCGGAUGCAGAGGAGGCAGGCUUCGGUGGCGCGAUAGCGCCAACGUCCUAAACAUCCAAUGCAUCCCACCACAUGAUGAUGCCUGAAGAGCCUUGGUUUUUUG [C82A C86A]	-0.787
GACCAAUUUGCCCUCAGAGCUCGAGAACAUCUUCGGAUGCAGAGGAGGCAGGCUUAGGUGGCGCGAUAGCGCCAACGUCCGCAACCUCCAAUGCAUCCCACCACAUGAUGAUGCCUGAACAGCCUUGGUUUUUUG [C8U C56A U81G G120C]	0.594
GACCAAUCUGCUCUCAGAGCUCGAGAACAUCUUCGGAUGCAGAGGAGGCAGGCUUCGGUGGCGCGAUAGCGCCAACGUCCUCUACCUCCAAUGCAUCCCACCACAUGAUGAUGCCUGAAGAGCCUUGGUUUUUUG [C12U A83U]	0.364
GACCAAUCUGCCCUCAGAGCUCGAGAACAUCUUCGGAUGCAGAGGAGGCAGGCUUCGGUGGCGCGAUAGCUCCAACGUCCUAAACCUCCAAUGCAUCCCACCACAUGAUGAUGCCAGAAGAGCCUUGGUUUUUUG [G71U C82A U116A]	-4.01
GACCAAUCUGCACUCAGAGCUCGAGAACAUCUUCGGAUGCAGAGGAGGCAGGCUUCGGUGGCGCGAUAGCGCCAACGUCCUCAACCUUCAAUGCAUCCCACCACAUGAUCAUGCCUGAAGAGCCUUGGUUUUUUG [C12A C88U G110C]	-4.61
GACCAAUCGGCCCUCAGAGCUCGAGAACAUCUUCGGAUGCAGAGGAGGCAGGCUUCGGUGGAGCGAUAGCGCCAACGUCCUCAACCUCCAAUGCAUCCCACCACAUGAUGAUGCCUGAAGAGCCUUGGUUUUUUG [U9G C62A]	-0.542
GACCAAUCUGCCCUCAGAGCUCGAGAACAUCUUCGGAUGCAGUGGAGGCAGGCUCCGGUGGCGCGAUAGCGCCAACGUCCUCAACCUCCAACGCAUCCCACCACAUGAUGAUGCCUGAAGAGCCUUGGUUUUUUG [A43U U55C U92C]	-2.54
GACCAAUCUGCCCUCAGAGCUCGAGAACAUCUUAGGUUGCAGAGGAGGCAGGCUUCGGUGGCGCGAUACCGCCAACGUCCUCAACCUCCAAUGCAUCCCACCACAUGAUGAUGCCUGAAAAGCCUUGGUUUUUUG [C34A A37U G69C G120A]	-5.05
GACCAAUCUGCCCUCAGAGCUCGAGAACAUCUUCGGAUGCAGAGGAGGCAGGCUUCGGUGGCGCGAUAGCGCCAACGUACUCAACCUCCAAUGCAUCCCACCACAUGAUGAUGCCUGAAGAGCCUUGGUUCUUUG [C79A U131C]	-0.838
GACCAAUCUGGCCUCAGAGCUCGAGAACAUCUUCGGAUGCAGAGGAGGCAGGCUUCGGUGGCCCGAUAGCGCCAACGUCCUCAACCUCCAAUGCAUCCCACCACAUGAUGAUGCCUGAAGAGCCUUGGUUUUUUG [C11G G63C]	-0.406
